Measurements from US20240352075A1, “PACAP1-23 ANALOG GLYCOPEPTIDES AND METHODS FOR PRODUCING AND USING THE SAME” (priority 2021, published 2024).
Where a SMILES comes first, the peptide text is derived from it. Primed or numbered codes have the meaning given here. Where no end group is shown, it is not given here. [ ]: non-standard residue; d: D form. The star is where a group is joined. ξ: configuration not given here. X2 = OCC1OC(OC2C(CO)OC(*)C(O)C2O)C(O)C(O)C1O; Glc = glucose on Ser (glucosylated Ser); Lac′ = lactose, glycoside on Ser; Nva = CCC[C@H](N)C(=O)O; ξS = NC(CO)C(=O)O; Sar = CNCC(=O)O

T1: VPAC1 (Homo sapiens, UniProt P32241)
T1 construct: 3xHA (N)
T1 sequence (P32241 31-457): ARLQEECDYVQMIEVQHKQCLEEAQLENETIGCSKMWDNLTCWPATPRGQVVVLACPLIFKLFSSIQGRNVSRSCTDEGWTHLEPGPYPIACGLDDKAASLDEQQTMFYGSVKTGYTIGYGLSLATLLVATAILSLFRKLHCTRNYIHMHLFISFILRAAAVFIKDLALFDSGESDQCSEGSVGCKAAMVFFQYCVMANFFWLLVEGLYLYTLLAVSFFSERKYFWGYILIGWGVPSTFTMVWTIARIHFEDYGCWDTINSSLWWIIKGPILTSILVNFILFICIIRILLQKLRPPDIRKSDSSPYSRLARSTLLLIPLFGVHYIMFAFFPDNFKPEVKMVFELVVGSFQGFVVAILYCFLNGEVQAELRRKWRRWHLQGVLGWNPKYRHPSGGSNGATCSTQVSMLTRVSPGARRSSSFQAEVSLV

T2: PAC1 (Homo sapiens, UniProt P41586)
T2 construct: 3xHA (N)
T2 sequence (P41586 21-468): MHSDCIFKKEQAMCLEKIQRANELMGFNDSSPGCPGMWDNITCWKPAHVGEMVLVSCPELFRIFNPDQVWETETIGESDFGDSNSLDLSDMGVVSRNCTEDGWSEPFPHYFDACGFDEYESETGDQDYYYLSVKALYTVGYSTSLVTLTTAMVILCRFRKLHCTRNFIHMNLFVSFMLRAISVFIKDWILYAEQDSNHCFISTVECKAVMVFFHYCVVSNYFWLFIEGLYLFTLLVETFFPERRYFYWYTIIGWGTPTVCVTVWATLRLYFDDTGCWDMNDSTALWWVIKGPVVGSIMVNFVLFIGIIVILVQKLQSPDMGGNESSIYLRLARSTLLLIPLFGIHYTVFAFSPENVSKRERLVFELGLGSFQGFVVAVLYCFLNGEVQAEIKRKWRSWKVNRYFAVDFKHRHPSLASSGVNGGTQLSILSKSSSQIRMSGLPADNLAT

T3: human VPAC1 (human, UniProt P32241 31-457)
T3 sequence (looked up): T1 sequence (P32241 31-457)

T4: human PAC1 (human, UniProt P41586 21-468)
T4 sequence (looked up): T2 sequence (P41586 21-468)

T5: human VPAC2 (human, UniProt P41587 24-438)
T5 sequence (looked up): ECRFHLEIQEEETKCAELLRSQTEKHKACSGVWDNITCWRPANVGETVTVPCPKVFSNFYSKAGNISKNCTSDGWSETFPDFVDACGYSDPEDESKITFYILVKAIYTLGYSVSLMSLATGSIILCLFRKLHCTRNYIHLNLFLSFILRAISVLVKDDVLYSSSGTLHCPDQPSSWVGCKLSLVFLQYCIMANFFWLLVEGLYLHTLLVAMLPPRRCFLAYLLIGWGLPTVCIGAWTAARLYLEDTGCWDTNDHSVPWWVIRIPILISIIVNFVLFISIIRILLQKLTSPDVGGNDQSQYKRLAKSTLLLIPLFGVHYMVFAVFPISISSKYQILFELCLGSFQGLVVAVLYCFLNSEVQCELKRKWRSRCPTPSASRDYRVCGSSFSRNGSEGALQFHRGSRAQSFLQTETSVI


Key:
VPAC1 = target: T1, VPAC1; assay: cAMP accumulation assay in CHO cells stably expressing VPAC1; type: cell-based; conditions: CHO
PAC1 = target: T2, PAC1; assay: cAMP accumulation assay in CHO cells stably expressing PAC1; type: cell-based; conditions: CHO
human VPAC1 [1] = target: T3, human VPAC1; assay: cell-based or functional assay
human PAC1 = target: T4, human PAC1; assay: cell-based or functional assay
human VPAC1 [2] = target: T3, human VPAC1; assay: cell-based or functional assay; remark: listed apart in the source
human VPAC2 [3] = target: T5, human VPAC2; assay: cell-based or functional assay
human VPAC2 [4] = target: T5, human VPAC2; assay: cell-based or functional assay; remark: listed apart in the source

Emax (VPAC1) | Emax (PAC1) | cAMP stimulation Emax (Table 1, differs from Table 3) (human VPAC1 [1]) | cAMP stimulation EC50 (human PAC1) | cAMP stimulation Emax (human PAC1) | cAMP stimulation EC50 (human VPAC1 [2]) | cAMP stimulation Emax (human VPAC1 [2]) | cAMP stimulation Emax (Table 1, differs from Table 3) (human VPAC2 [3]) | cAMP stimulation EC50 (human VPAC2 [4]) | cAMP stimulation Emax (human VPAC2 [4]) | Molecule
90% | 134% | – | – | – | – | – | – | – | – | CCC[C@H](NC(=O)[C@H](CCC(N)=O)NC(=O)[C@H](CCCCN)NC(=O)[C@H](CCCNC(=N)N)NC(=O)[C@H](Cc1ccc(O)cc1)NC(=O)[C@H](CCCNC(=N)N)NC(=O)[C@H](CO)NC(=O)[C@H](Cc1ccc(O)cc1)NC(=O)[C@H](CO)NC(=O)[C@H](CC(=O)O)NC(=O)[C@@H](NC(=O)[C@H](Cc1ccccc1)NC(=O)[C@@H](NC(=O)CN(C)C(=O)[C@H](CC(=O)O)NC(=O)[C@H](CO)NC(=O)[C@@H](N)Cc1c[nH]cn1)[C@@H](C)CC)[C@@H](C)O)C(=O)N[C@@H](C)C(=O)N[C@H](C(=O)N[C@@H](CCCCN)C(=O)N[C@@H](CCCCN)C(=O)N[C@@H](Cc1ccc(O)cc1)C(=O)N[C@@H](CC(C)C)C(=O)NC(COC1OC(CO)C(OC2OC(CO)C(O)C(O)C2O)C(O)C1O)C(N)=O)C(C)C (some centres unmarked) [CRA-TG-3027] (H-HSD[Sar]IFTDSYSRYRKQ[Nva]AVKKYL[ξS](X2)-NH2)
– | – | 107% | 67 nM | 134% | 195 nM | 90% | – | – | – | HSD[Sar]IFTDSYSRYRKQ[Nva]AVKKYLS(Lac′)-NH2 [CRA-TG-3027]

The next lines start with the molecule.

Molecule | Emax (VPAC1) | Emax (PAC1) | cAMP stimulation Emax (Table 1, differs from Table 3) (human VPAC1 [1]) | cAMP stimulation EC50 (human PAC1) | cAMP stimulation Emax (human PAC1) | cAMP stimulation EC50 (human VPAC1 [2]) | cAMP stimulation Emax (human VPAC1 [2]) | cAMP stimulation Emax (Table 1, differs from Table 3) (human VPAC2 [3]) | cAMP stimulation EC50 (human VPAC2 [4]) | cAMP stimulation Emax (human VPAC2 [4])
HSDGIFTDSYSRYRKQ[Nva]AVKKYLS(Glc)S(Glc)-NH2 [CRA-DV-3024] | – | – | 147% | 1.9 nM | 152% | 26 nM | 127% | 128% | 7370 nM | 130%
HSDGIFTDSYSRYRKQ[Nva]AVKKYLS-NH2 (not fully specified) [CRA-DV-3022] | – | – | 42% | 2.2 nM | 198% | 5.2 nM | 94% | 111% | 571 nM | 91%
HSDGIFTDSYSRYRKQ[Nva]AVKKYLS(Lac′)-NH2 [CRA-TG-3025] | – | – | 118% | 1.8 nM | – | 21 nM | – | – | – | –
